Source: patent US20150232507A1

Key:
Assay in all cases: cell-based or functional assay
[1] = biological target: C-terminal domain of G1 cloned directly to Trx whose first amino acid is Tyr (E. coli)
[2] = biological target: C-terminal domain of G1 cloned directly to Trx whose first amino acid is Ala (E. coli)
[3] = biological target: C-terminal domain of G1 cloned directly to Trx whose first amino acid is Met (E. coli)
[4] = biological target: C-terminal domain of G1 cloned directly to Trx whose first amino acid is Ile (E. coli)
[5] = biological target: C-terminal domain of G1 cloned directly to Trx whose first amino acid is Trp (E. coli)
[6] = biological target: C-terminal domain of G1 cloned directly to Trx whose first amino acid is Cys (E. coli)
[7] = biological target: C-terminal domain of G1 cloned directly to Trx whose first amino acid is Val (E. coli)
[8] = biological target: C-terminal domain of G1 cloned directly to Trx whose first amino acid is Glu (E. coli)
[9] = biological target: C-terminal domain of G1 cloned directly to Trx whose first amino acid is Ser (E. coli)
[10] = biological target: C-terminal domain of G1 cloned directly to Trx whose first amino acid is Lys (E. coli)
[11] = biological target: C-terminal domain of G1 cloned directly to Trx whose first amino acid is His (E. coli)
[12] = biological target: C-terminal domain of G1 cloned directly to Trx whose first amino acid is Leu (E. coli)
[13] = biological target: C-terminal domain of G1 cloned directly to Trx whose first amino acid is Asn (E. coli)
[14] = biological target: C-terminal domain of G1 cloned directly to Trx whose first amino acid is Gly (E. coli)
[15] = biological target: C-terminal domain of G1 cloned directly to Trx whose first amino acid is Pro (E. coli)
[16] = biological target: C-terminal domain of G1 cloned directly to Trx whose first amino acid is Gln (E. coli)
[17] = biological target: C-terminal domain of G1 cloned directly to Trx whose first amino acid is Arg (E. coli)
[18] = biological target: C-terminal domain of G1 cloned directly to Trx whose first amino acid is Phe (E. coli)
[19] = biological target: C-terminal domain of G1 cloned directly to Trx whose first amino acid is Thr (E. coli)
[20] = biological target: C-terminal domain of G1 cloned directly to Trx whose first amino acid is Asp (E. coli)

C-terminal Cleavage Yield (%) [1]: 91.3%
C-terminal Cleavage k [1]: 0.00033 s⁻¹
C-terminal Cleavage t(½) [1]: 35 min
C-terminal Cleavage Yield (%) [2]: 75.8%
C-terminal Cleavage k [2]: 0.000357 s⁻¹
C-terminal Cleavage t(½) [2]: 32.4 min
C-terminal Cleavage Yield (%) [3]: 85.6%
C-terminal Cleavage k [3]: 0.00087 s⁻¹
C-terminal Cleavage t(½) [3]: 13.3 min
C-terminal Cleavage Yield (%) [4]: 88.4%
C-terminal Cleavage k [4]: 0.000173 s⁻¹
C-terminal Cleavage t(½) [4]: 66.7 min
C-terminal Cleavage Yield (%) [5]: 94.1%
C-terminal Cleavage k [5]: 0.00028 s⁻¹
C-terminal Cleavage t(½) [5]: 41.3 min
C-terminal Cleavage Yield (%) [6]: 83.6%
C-terminal Cleavage k [6]: 0.000683 s⁻¹
C-terminal Cleavage t(½) [6]: 16.9 min
C-terminal Cleavage Yield (%) [7]: 86.7%
C-terminal Cleavage k [7]: 0.000273 s⁻¹
C-terminal Cleavage t(½) [7]: 42.3 min
C-terminal Cleavage Yield (%) [8]: 86.2%
C-terminal Cleavage k [8]: 0.000127 s⁻¹
C-terminal Cleavage t(½) [8]: 91.2 min
C-terminal Cleavage Yield (%) [9]: 89.4%
C-terminal Cleavage k [9]: 0.000483 s⁻¹
C-terminal Cleavage t(½) [9]: 23.9 min
C-terminal Cleavage Yield (%) [10]: 86.7%
C-terminal Cleavage k [10]: 0.00051 s⁻¹
C-terminal Cleavage t(½) [10]: 22.6 min
C-terminal Cleavage Yield (%) [11]: 71.1%
C-terminal Cleavage k [11]: 0.000447 s⁻¹
C-terminal Cleavage t(½) [11]: 25.9 min
C-terminal Cleavage Yield (%) [12]: 69.3%
C-terminal Cleavage k [12]: 0.000273 s⁻¹
C-terminal Cleavage t(½) [12]: 42.3 min
C-terminal Cleavage Yield (%) [13]: 71.2%
C-terminal Cleavage k [13]: 0.000287 s⁻¹
C-terminal Cleavage t(½) [13]: 40.3 min
C-terminal Cleavage Yield (%) [14]: 75.2%
C-terminal Cleavage k [14]: 0.000137 s⁻¹
C-terminal Cleavage t(½) [14]: 84.5 min
C-terminal Cleavage Yield (%) [15]: 57.8%
C-terminal Cleavage k [15]: 6e-05 s⁻¹
C-terminal Cleavage t(½) [15]: 193 min
C-terminal Cleavage Yield (%) [16]: 88.8%
C-terminal Cleavage k [16]: 0.00047 s⁻¹
C-terminal Cleavage t(½) [16]: 24.6 min
C-terminal Cleavage Yield (%) [17]: 87.3%
C-terminal Cleavage k [17]: 0.00051 s⁻¹
C-terminal Cleavage t(½) [17]: 22.6 min
C-terminal Cleavage Yield (%) [18]: 72.6%
C-terminal Cleavage k [18]: 0.000307 s⁻¹
C-terminal Cleavage t(½) [18]: 37.7 min
C-terminal Cleavage Yield (%) [19]: 87.5%
C-terminal Cleavage k [19]: 0.000573 s⁻¹
C-terminal Cleavage t(½) [19]: 20.1 min
C-terminal Cleavage Yield (%) [20]: 68.6%
C-terminal Cleavage k [20]: 0.000247 s⁻¹
C-terminal Cleavage t(½) [20]: 46.8 min
B1: G1^N(C1A): StreptagII-gpD-linker[N-extein]-Gp41.1^N(C1A)-GGHHHHHH fusion protein (protein)
chain: MASWSHPQFEKASKETFTHYQPQGNSDPAHTATAPGGLSAKAPAMTPLMLDTSSRKLVAWDGTTDGAAVGILAVAADQTSTTLTFYKSGTFRYEDVLWPEAASDETKKRTAFAGTAISIVGSTRSGYALDLKTQVQTPQGMKEISNIQVGDLVLSNTGYNEVLNVFPKSKKKSYKITLEDGKEIICSEEHLFPTQTGEMNISGGLKEGMCLYVKEGGHHHHHH
